In the DeepSol protein solubility set:

Assay: soluble on expression in E. coli; label from the status in PepcDB or PDB records

Sequence | soluble on expression in E. coli
MAHHHHHHMGTLEAQTQGPGSMLTYFHPDQSLHHPRTYFSRGRMRMPQEVPERAARLVAAAFAMGFPVREPDDFGIAPIAAVHDTHYLRFLETVHREWKAMPEDWGDEAMSNIFVREPNALRGVLAQAARHLADGSCPVGEHTWRAAYWSAQSALAAAAAVRDGAPAAYALCRPPGHHARVDAAGGFCYLNNAAIAAQALRARHARVAVLDTDMHHGQGIQEIFYARRDVLYVSIHGDPTNFYPAVAGFDDERGAGEGLGYNVNLPMPHGSSEAAFFERVDDALRELRRFAPDALVLSLGFDVYRDDPQSQVAVTTDGFGRLGHLIGALRLPTVIVQEGGYHIESLEANARSFFGGFGALRG | soluble
MAHHHHHHMGTLEAQTQGPGSMQVKLSQERAKELAENASFIASPGKGILAADESTGTIQKRFDNVGVENTEKNRAEYRSILFTTKGLGKYISGCILFEETLFQQAPNGQNMVDLLRAEGILPGIKVDKGLVTIPNTDEEVSTTGLDGLAERCQKYYNAGARFAKWRAVLSIDVKKNKPSNLSILETAHTLARYAAICQENGLVPIVEPEILADGDHSIEVCAEVTERVLAAVFKALNDHKVLLEGALLKPNMVTQGVDCKDKPAPQTVGFLTSRALRRTVPPALPGVMFLSGGQSESMATRHLNEINKCNKHPWSLSFSYGRALQSSVLKTWNGSMSNAAAAQDVLMKLAQQNSEASLGSLKTDLSDDGESLFEAKYIY | soluble
MAHHHHHHMGWFRSSASPEAGTATAEAPAAAAEHGSQHRQPQPEANSPAPLTEAEQLDLLVAGARLDDTEAQDTARFLGSNRRHMYADGLLSCAAYTFSGLHHIQGQSSALTLLTMWTVGTTFLVDVAERKYLQESLQGTLRTAKTTSEAEKPLLLDQPPHNATPASTPRKAAVVPAMPTSSDSLSSAIKKPAPRDKEKLAEQQRKVFLTQAVASWLWMLASFQQFKVHKRLKWCGYSSWMGLGCAGYYTTRHLYNLLVK | soluble
MAHHHHHHMHDANRFGGRTAYLREIGPIDHKKKGRLFKRDLPTLQFNVDVWCAQQTLRKQWKGRDWDVVEMPFEMAPKELQRVVPEKYTDVPIMTDPARHDYMNIRRKVFDREDMQDALFASGGAGQSPYPAIQRVDKAAMTLDKYL | soluble
MAHHHHHHMHRASRIAAAPFKSVLRRHKHHPEGLPLYNEMSKQWLCREGERWWILDAKGEQLPRVAAVAAQYITGQHRPDFTPGMISGDHVIIVNIKDVVMVGDEWIRVPITWQTAYPGGKYRIRLTDMYERDPCMLMWWFLKDEVNRHFVRKLKTRVAPLEKAWLYEDSVHPHGEKNPRPLCWSDPVVRGWKYTDPQFIRRWKPNEFIT | not soluble
MAHHHHHHMHSRTAPPLPPHTFAQVLHDRFVHYNDGKNKQTNIKRRNANNLNSFSYTAARAQGVVPRVDSTLGLLWTWRWAGAYGVACVCVCLCAADKMSAARHSHPPPPSLSRCRFPPPALFIMHRAHTYLLCIAAHLLLSPPPPSSPSRFVFASSSLSCPGCAFSWVTRFVSSMLRRTLCCGMMQLHALPTPNPLCHTFTIPADSFESFVPQGQSCEVAHRGLAWVHPLSQGLFEQYPQELMSVFIAPRHVSISVYTNVDWSKIEWSISSFLGHYLIFTNACISPAKEYTLMEDDLELKDTDTEVLQCIKELLREQVRPMVQRDGGDVKLLNFNEKTGIVSLAMLGACKTCPSSQNTLKDGIERVMKHFVPEVTEVIEDKEHQFYEDYGLLFDSEKALFKEAARLDRERQAKLRHNLTPMVLSYEVLNEPDGD | not soluble
MAHHHHHHMHSSPSKKKDLSNGACPAKEKEASKRKQSFNDVELEIDDDIITHLSSRICNKNVTHKILKINNLIDDQMHDYIANGRASEISESNDESDAHEGVERAHLNLRNGYAGCQHGDESSSNTISNDLPERKAISSEQVPTYELNKEVQGKSKAKGKGKGKGELLSDDPHLEEPLAEGHTHFDRIKMMNLLGENTIVYNSRDDQNNVLFLCYDEKSEQCDVCDRYRKNYMSNMHPSSCVPLRGGAAMKGDAAINGNAPINGVAATNGAAAINGTAAIDALSDYFFVLGSTSNSRKYILKQSSLDFLSVRIHIDEKKIGCRKSHDPLTLTANIAVGKGLKLLNMIKTDSELSKQIAELSKGKKVVLLVGDEVIYCNNKIYEKPKNEKEASNFLKSYNNSKCYSYSSITLIELETEKIITGIDESIINVYDMDDSVVKKILDDSSIYFCAGALKIENTHMHRYIKVIKGNIDSIFGLSLNLLFHLVNFL | not soluble
MAHHHHHHMHTKHTRRPVDTHKRNTMPLIRPGMPKPPQGFDVVLAKLEEYDEQMKLATQEESKGVVGVTTRPRHSGGFGARKRMRDDDANAEDGTVAPPAEASSTVAAAESEAGTSTAGDDNAEAKEEPPIPPLWRMAAINRARTRYVFLAYYKQHIISKEVYDYCVDTRLIDGGLARRWRLPGYERLCCTACGVPGAASLAASITSKYALRDRQERRLTTSASQQRIHDTATCLCRVPAAQRRSKHFVACAACGCHGCCSADAMKGPKEGDGGEKTDKTREEPSVNAPGRGEA | not soluble
MAHHHHHHMIDLTGKTSLITGASSGIGSAIARLLHKLGSKVIISGSNEEKLKSLGNALKDNYTIEVCNLANKEECSNLISKTSNLDILVCNAGITSDTLAIRMKDQDFDKVIDINLKANFILNREAIKKMIQKRYGRIINISSIVGIAGNPGQANYCASKAGLIGMTKSLSYEVATRGITVNAVAPGFIKSDMTDKLNEKQREAIVQKIPLGTYGIPEDVAYAVAFLASNNASYITGQTLHVNGGMLMV | soluble
MAHHHHHHMIVDSAVTERVVLQQQQELDAAERRCAAAEQRLEVELQKTFWRFLTTSAPDAVAAANRKQQSLGWANGGDGAGADSSLYRAEVDVSRFAEVRKAASPNPHRCNTAVAPFSPVRLVPVRTIKLSNEVGDASAAAAASRTQSPSKRSQDSALQPIVLDISPVSALSRCLGCCSGTQLGAIASSVSSAAEEHLLRLAHTRHSVLLFIGSESAAMDVMQSCKAPELLLGAGHSCRDRFQPLANHPVLRVLFTTRLWGANVVLLWNPAQDAALAVAAQAVVEDALELAYAWDADMFSVAVLEGARLPSYAGAGGVSAVATGASSTSAAFFASQAVSMEVLRQLRNSVTRELLDTAGMRRARRWQGTATWMQQGIGSAAAATTGTHMCPRAVGVLYVSQSAQQEQENQLQHQEVSCTASSIRSNAASPLRGDNSIVSVMSSSFLFSPTSPASAFRGPCITFNTPLAIRAFLPLAEEYFIREQPSLVRGSSRGGGDGHHGVSEAASSSTLNQEGGGARGLLRRTASATATEDDDASFSSEKDARFSPASLSATSAPASSPAIDAIRASGSGGEAGLRRQPEMTLESLIQYAFGDLAEIL | not soluble
MAHHHHHHMIYGKDGKYPVGEILEYNNYNLSGQSLVEKKEREKLSIDYYEDLRKAAECHRQVRKHMQAFIKPGKKMIDIAQETERKTKELILAEKLKCGWGFPTGCSLNHCAAHYTPNYGDETVLKYDDVCKLDFGVHVNGYIIDCAFTIAFNEKYDNLIKATQDGTNTGIKEAGIDARMCDIGEAIQEAIESYEIELNQKIYPIKAISNLRGHSINKYIIHGGKCVPIVRQKEKNEIMEEGELFAIETFASTGKGYVNHENECSHYMRNPEKQFVPIRLNSAKTLLKVINDNFDTLPFCNRWLDDLGQTRHFMALKTLIDLNIVEPYPPLCDIKNSFTSQMEHTILLRPTCKEVLSRGPDF | soluble
MAHHHHHHMKETLVFATARQQFLQHGYAIFSAAIGASLIERLRPALTASTVARARCFIDVPDIESMLKSKSRLSDPLYTKVMARLQRRKYMLRRYREEKKRRKQLKEVVANFLNGREKEDLTGEELWKLSELLAKEAVSVPGKECRSTIKNDPQMLRAINEYRCNVWMTNKELENIVRDPSFWQPIGAIASDVGGVERPVLFADAPMFREPYGGPFGYHCTAPSIGVKTNGNQPLAVSLLVFTHRPDKQKMPLFVLKGSHRFVQDQYLRYVLPNVLSLPFLPMESHIPEQIKRFNFDSSVVGSPIEGGDAIGPGTVVVLNPHLMIGVGANASTERVAVYKLNLIAENAPPFLKAPSWITAWRSLPREVNFASPVVFPPFYDKTMSTTSAR | not soluble
